According to patent US20210155689A1 (SHANGHAI PHARMAEXPLORER, published 2021):

T1: LAG-3-hFc protein (human LAG-3 extracellular region with hFc tag) (human, UniProt P18627 23-450)
T1 construct: also called hLAG-3-hFc; LAG-3 protein; not shown: human IgG Fc fragment (hFc) of the pCpC vector
T1 sequence: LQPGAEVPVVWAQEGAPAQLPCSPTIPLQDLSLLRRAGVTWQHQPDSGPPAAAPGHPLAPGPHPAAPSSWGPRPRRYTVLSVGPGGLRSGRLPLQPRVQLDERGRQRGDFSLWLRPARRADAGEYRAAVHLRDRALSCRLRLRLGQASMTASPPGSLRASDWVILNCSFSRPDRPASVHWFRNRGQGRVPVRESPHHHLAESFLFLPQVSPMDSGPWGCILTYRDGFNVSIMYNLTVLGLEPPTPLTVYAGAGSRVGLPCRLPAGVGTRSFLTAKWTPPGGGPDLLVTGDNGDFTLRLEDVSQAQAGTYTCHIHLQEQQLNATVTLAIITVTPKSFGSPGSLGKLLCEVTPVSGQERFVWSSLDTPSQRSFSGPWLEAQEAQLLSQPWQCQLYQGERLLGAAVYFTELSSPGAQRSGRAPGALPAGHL

T2: mouse LAG-3 protein with hFc tag (mLAG-3-hFc protein) (mouse; human, UniProt Q61790 24-442)
T2 construct: Made in HEK293 cells; also called mouse LAG-3 extracellular domain protein; not shown: human IgG Fc fragment (hFc) of the pCpC vector
T2 sequence: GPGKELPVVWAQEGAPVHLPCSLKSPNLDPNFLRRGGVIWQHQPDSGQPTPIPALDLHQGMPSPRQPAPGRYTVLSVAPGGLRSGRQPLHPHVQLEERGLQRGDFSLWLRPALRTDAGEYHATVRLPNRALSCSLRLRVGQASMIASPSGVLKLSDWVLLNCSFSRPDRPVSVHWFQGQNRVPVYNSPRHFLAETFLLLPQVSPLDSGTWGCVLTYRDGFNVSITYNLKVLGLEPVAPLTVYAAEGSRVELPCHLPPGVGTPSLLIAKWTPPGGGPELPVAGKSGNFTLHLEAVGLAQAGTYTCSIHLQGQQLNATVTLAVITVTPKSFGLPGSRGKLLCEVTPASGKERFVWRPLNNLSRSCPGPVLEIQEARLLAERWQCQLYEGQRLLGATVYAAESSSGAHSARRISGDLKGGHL

T3: human LAG-3 protein with hFc tag (hLAG-3-hFc protein) (human, UniProt P18627 23-450)
T3 construct: also called immunogen 1; LAG-3 extracellular domain protein; not shown: human IgG Fc fragment (hFc) of the pCpC vector
T3 sequence: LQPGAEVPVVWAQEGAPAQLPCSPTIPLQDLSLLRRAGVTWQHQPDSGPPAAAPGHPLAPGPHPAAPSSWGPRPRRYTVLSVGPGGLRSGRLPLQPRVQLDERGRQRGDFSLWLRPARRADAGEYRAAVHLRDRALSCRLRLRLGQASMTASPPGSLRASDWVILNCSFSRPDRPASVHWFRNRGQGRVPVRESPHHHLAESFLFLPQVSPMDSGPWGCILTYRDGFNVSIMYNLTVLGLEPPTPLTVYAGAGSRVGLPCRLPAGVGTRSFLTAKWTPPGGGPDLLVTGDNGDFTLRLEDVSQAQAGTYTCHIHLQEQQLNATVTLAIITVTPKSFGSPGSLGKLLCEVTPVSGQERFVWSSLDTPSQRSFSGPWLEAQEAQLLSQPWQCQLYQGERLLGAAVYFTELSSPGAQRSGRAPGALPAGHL

B1: 556F6B8 mouse-human chimeric antibody (antibody, V domains shown)
VH: RVQLKQSGPGLVQPSQSLSITCTVSGFSLIKYGVHWVRQSPGEGLEWLGVIWRGGITDYNAAFMSRLSITKDNSKSQVFFKMNSLQADDTAIYYCAKWDGPLAMDYWGQGTSVTVSS
VL: DIVMTQSHKFLSTSVGDRVSITCKASQDVGTTVAWYQQKPGQSPKLLIYWASTRHTGVPDRFTGSGSGTDFTLTISNVQSEDLADYFCQQYSSYPYTFGGGTKLEIK
notes: also called mAb123-556F6B8; 556F8B8
B2: 556F6B8 (LAG-3 mouse-human chimeric antibody) (antibody, V domains shown)
VH: RVQLKQSGPGLVQPSQSLSITCTVSGFSLIKYGVHWVRQSPGEGLEWLGVIWRGGITDYNAAFMSRLSITKDNSKSQVFFKMNSLQADDTAIYYCAKWDGPLAMDYWGQGTSVTVSS
VL: DIVMTQSHKFLSTSVGDRVSITCKASQDVGTTVAWYQQKPGQSPKLLIYWASTRHTGVPDRFTGSGSGTDFTLTISNVQSEDLADYFCQQYSSYPYTFGGGTKLEIK
notes: also called 556F8B8
B3: 556F6B8 (mouse antibody purified from hybridoma) (antibody, V domains shown)
VH: RVQLKQSGPGLVQPSQSLSITCTVSGFSLIKYGVHWVRQSPGEGLEWLGVIWRGGITDYNAAFMSRLSITKDNSKSQVFFKMNSLQADDTAIYYCAKWDGPLAMDYWGQGTSVTVSS
VL: DIVMTQSHKFLSTSVGDRVSITCKASQDVGTTVAWYQQKPGQSPKLLIYWASTRHTGVPDRFTGSGSGTDFTLTISNVQSEDLADYFCQQYSSYPYTFGGGTKLEIK
notes: also called mAb123-556F6B8
B4: 405B8H3 (mouse antibody purified from hybridoma) (antibody, V domains shown)
VH: QVQLQQSGAELVRPGASVTLSCKASGYTFTDYEMHWVKQTPVHGLEWIGATDPETGNSAYNQKFKGKAIMTADKSSSTAYMELRSLTSEDSAVYYCISTGWNDWGQGTSLTVSS
VL: DIKMTQSPSSMYASLGERVTITCKASQDINSYLSWFQQKPGKSPKTLIYRADRLLDGVPSRFSGSGSGQDYSLTISSLEYGDMGIYYCLQYDEFPYTFGGGTKLEIK
notes: also called mAb103-405B8H3; 405B81-13
B5: 405B8H3 (LAG-3 mouse-human chimeric antibody) (antibody, V domains shown)
VH: QVQLQQSGAELVRPGASVTLSCKASGYTFTDYEMHWVKQTPVHGLEWIGATDPETGNSAYNQKFKGKAIMTADKSSSTAYMELRSLTSEDSAVYYCISTGWNDWGQGTSLTVSS
VL: DIKMTQSPSSMYASLGERVTITCKASQDINSYLSWFQQKPGKSPKTLIYRADRLLDGVPSRFSGSGSGQDYSLTISSLEYGDMGIYYCLQYDEFPYTFGGGTKLEIK
notes: also called mouse-human chimeric antibody 405B8H3
B6: 105F1E10 (mouse antibody purified from hybridoma) (antibody, V domains shown)
VH: EVQLQQSGPELVKPGASVKMSCRASGYTFTDFKMHWMKQSHGKSLEWIGYIAPNNGGTAYNQKFRGKATLTVNESSNTAYMELRSLTSEDSAVYYCVDWDDVDYWGQGTTLTVSS
VL: DIKMTQSPSSMYASLGERVTITCKASQDINSYLSWFQQKSGKSPKTLIYRANRLVDGVPSRFSGSGSGQDYSLTISSLEYEDMGIYYCLQYVEFPLTFGAGTKLELK
notes: also called mAb009-105F1E10
B7: 105F1E10 (LAG-3 mouse-human chimeric antibody) (antibody, V domains shown)
VH: EVQLQQSGPELVKPGASVKMSCRASGYTFTDFKMHWMKQSHGKSLEWIGYIAPNNGGTAYNQKFRGKATLTVNESSNTAYMELRSLTSEDSAVYYCVDWDDVDYWGQGTTLTVSS
VL: DIKMTQSPSSMYASLGERVTITCKASQDINSYLSWFQQKSGKSPKTLIYRANRLVDGVPSRFSGSGSGQDYSLTISSLEYEDMGIYYCLQYVEFPLTFGAGTKLELK
B8: 405B8H3 mouse-human chimeric antibody (antibody, V domains shown)
VH: QVQLQQSGAELVRPGASVTLSCKASGYTFTDYEMHWVKQTPVHGLEWIGATDPETGNSAYNQKFKGKAIMTADKSSSTAYMELRSLTSEDSAVYYCISTGWNDWGQGTSLTVSS
VL: DIKMTQSPSSMYASLGERVTITCKASQDINSYLSWFQQKPGKSPKTLIYRADRLLDGVPSRFSGSGSGQDYSLTISSLEYGDMGIYYCLQYDEFPYTFGGGTKLEIK
notes: also called mAb103-405B8H3
B9: 105F1E10 mouse-human chimeric antibody (antibody, V domains shown)
VH: EVQLQQSGPELVKPGASVKMSCRASGYTFTDFKMHWMKQSHGKSLEWIGYIAPNNGGTAYNQKFRGKATLTVNESSNTAYMELRSLTSEDSAVYYCVDWDDVDYWGQGTTLTVSS
VL: DIKMTQSPSSMYASLGERVTITCKASQDINSYLSWFQQKSGKSPKTLIYRANRLVDGVPSRFSGSGSGQDYSLTISSLEYEDMGIYYCLQYVEFPLTFGAGTKLELK
notes: also called mAb009-105F1E10
B10: 409D4E10 (mouse antibody purified from hybridoma) (antibody, V domains shown)
VH: QVQLQQSGAELVRPGASVTLSCKASGNTFTDYEMHWVKQTPVHGLEWIGATDPETDNTAYNQKFKGKAILTTDKSSSTAYMELRSLTSEDSAVYYCITSGWNDWGQGTSLTVSS
VL: DIKMTQSPSSMYASLGERVTITCKASQDINSYLSWFQQKPGKSPKTLIYRANRLLDGVPSRFSGSGSGQDYSLTISSLEYEDMGIYYCLQYNEFPYTFGGGTKLEIK
notes: also called mAb112-409D4E10
B11: 409B11E12 mouse-human chimeric antibody (antibody, V domains shown)
VH: QVQLQQSGAELVRPGASVTLSCKASGYTFTDYEMHWVKQTTVHGLEWIGATDPETSYSAYNQKFKGKAILTADKSSSTAYMELRSLTSEDSAVYYCIATGWNDWGQGTSLTVSS
VL: DLKMTQSPSSMYASLGERVTITCKASQDINSYLSWFQQKPGKSPKTLIYRANRLLDGVPSRFSGSGSGQDYSLTISSLEYEDMGIYYCLQYDEFPYTFGGGTKLEIK
notes: also called mAb104-409B11E12
B12: 409D4E10 (LAG-3 mouse-human chimeric antibody) (antibody, V domains shown)
VH: QVQLQQSGAELVRPGASVTLSCKASGNTFTDYEMHWVKQTPVHGLEWIGATDPETDNTAYNQKFKGKAILTTDKSSSTAYMELRSLTSEDSAVYYCITSGWNDWGQGTSLTVSS
VL: DIKMTQSPSSMYASLGERVTITCKASQDINSYLSWFQQKPGKSPKTLIYRANRLLDGVPSRFSGSGSGQDYSLTISSLEYEDMGIYYCLQYNEFPYTFGGGTKLEIK
B13: 409B11E12 (mouse antibody purified from hybridoma) (antibody, V domains shown)
VH: QVQLQQSGAELVRPGASVTLSCKASGYTFTDYEMHWVKQTTVHGLEWIGATDPETSYSAYNQKFKGKAILTADKSSSTAYMELRSLTSEDSAVYYCIATGWNDWGQGTSLTVSS
VL: DLKMTQSPSSMYASLGERVTITCKASQDINSYLSWFQQKPGKSPKTLIYRANRLLDGVPSRFSGSGSGQDYSLTISSLEYEDMGIYYCLQYDEFPYTFGGGTKLEIK
notes: also called mAb104-409B11E12
B14: 409D4E10 mouse-human chimeric antibody (antibody, V domains shown)
VH: QVQLQQSGAELVRPGASVTLSCKASGNTFTDYEMHWVKQTPVHGLEWIGATDPETDNTAYNQKFKGKAILTTDKSSSTAYMELRSLTSEDSAVYYCITSGWNDWGQGTSLTVSS
VL: DIKMTQSPSSMYASLGERVTITCKASQDINSYLSWFQQKPGKSPKTLIYRANRLLDGVPSRFSGSGSGQDYSLTISSLEYEDMGIYYCLQYNEFPYTFGGGTKLEIK
notes: also called mAb112-409D4E10
B15: 409B11E12 (LAG-3 mouse-human chimeric antibody) (antibody, V domains shown)
VH: QVQLQQSGAELVRPGASVTLSCKASGYTFTDYEMHWVKQTTVHGLEWIGATDPETSYSAYNQKFKGKAILTADKSSSTAYMELRSLTSEDSAVYYCIATGWNDWGQGTSLTVSS
VL: DLKMTQSPSSMYASLGERVTITCKASQDINSYLSWFQQKPGKSPKTLIYRANRLLDGVPSRFSGSGSGQDYSLTISSLEYEDMGIYYCLQYDEFPYTFGGGTKLEIK

Tests used:
[1] = target: T1, LAG-3-hFc protein (human LAG-3 …); test: FACS, inhibition of LAG-3-hFc binding to MHC II on Raji cells, antibody 2.469 nM
Protocol: (§1) The FACS reaction plate incubating the Raji cells was centrifuged to discard the supernatant. The above mixture was added as 100 μl per well to Raji cells and incubated on ice for 1-2 hours. The plate was washed twice with blocking solution (PBS, 2% fetal bovine serum) by centrifugation, added with 100 microliters of fluorescent (Alexa 488)-labeled secondary antibodies per well, and incubated on ice for 1.0 hours. The plate was washed 2-3 times by centrifugation with blocking solution (PBS, 2% fetal bovine serum), added with 100 microliters of PBS per well to suspend cells, and detected using FACS (FACS Calibur, BD) and the results were analyzed. Wherein, the IgG control was murine IgG, and the data in the table is the inhibition rate (%).

[2] = target: T2, mouse LAG-3 protein with hFc tag …; test: ELISA, mLAG-3-hFc coated; 66.6670 nM
Protocol: The plate was sealed with plastic film and incubated overnight at 4° C. The plate was washed 2 times with the plate washing solution (PBS+0.01% Tween20) on the next day, and added with the blocking solution (PBS+0.01% Tween20+1% BSA) and blocked at room temperature for 1-2 hours. The blocking solution was poured out, and the plate was added with 50-100 μl of the antibody sample to be tested to each well, incubated at 37° C. for 1-2 hours, and washed 2-3 times with a plate washing solution (PBS+0.01% Tween20). HRP (horseradish peroxidase) labeled secondary antibody was added, and the plate was incubated at 37° C. for 1-2 hours, and washed 2-3 times with a plate washing solution (PBS+0.01% Tween20). 100 μl of TMB substrate was added to each well. After incubated at room temperature for 15-30 minutes, the plate was added with 100 μl of stop solution (1.0N HCl) to each well.

[3] = target: T3, human LAG-3 protein with hFc tag …; test: FACS, blocks LAG-3-hFc binding to MHC II on Raji; 0.274 nM
Protocol: as §1

[4] = target: T3, human LAG-3 protein with hFc tag …; test: FACS, blocks LAG-3-hFc binding to MHC II on Raji; 0.823 nM
Protocol: as §1

| Binder | Inhibition rate (%) [1] | OD450 [2] | Inhibition rate (%) [3] | Inhibition rate (%) [4] |
| --- | --- | --- | --- | --- |
| B1 | 41.5% |  |  |  |
| B2 |  | 1.08 OD450 |  |  |
| B3 |  |  | 6% | 20.1% |
| B4 |  |  | 2.1% | 10.9% |
| B5 |  | 1.1 OD450 |  |  |
| B6 |  |  | -8.3% | 7% |
| B7 |  | 0.54 OD450 |  |  |
| B8 | 55.8% |  |  |  |
| B9 | 8.2% |  |  |  |
| B10 |  |  | -7.5% | 18.2% |
| B11 | 59.2% |  |  |  |
| B12 |  | 1.06 OD450 |  |  |
| B13 |  |  | -3.9% | 15.3% |
| B14 | 56.7% |  |  |  |
| B15 |  | 1.1 OD450 |  |  |
